Four proteins from publication PMC4598101, “Growth of Chitinophaga pinensis on Plant Cell Wall Glycans and Characterisation of a Glycoside Hydrolase Family 27 β-L-Arabinopyranosidase Implicated in Arabinogalactan Utilisation” (PLoS ONE, 2015) can be followed below.

Substrate in series [1]: O=[N+]([O-])c1ccc(O[C@H]2OC[C@H](O)[C@H](O)[C@H]2O)cc1
Kind of series: continuous pNP release, spectrophotometer. Type of series: biochemical, Chitinophaga pinensis. As to conditions: 50 mM sodium citrate pH 5.0, 30 °C. The source says:
(§1) continuous pNP release, spectrophotometer on CpArap27 (Cpin_5740 gene product)

Substrate in series [2]: O=[N+]([O-])c1ccc(O[C@H]2O[C@H](CO)[C@H](O)[C@H](O)[C@H]2O)cc1
Kind of series: continuous pNP release, spectrophotometer. Type of series: biochemical, Chitinophaga pinensis. As to conditions: 50 mM sodium citrate pH 5.0, 30 °C.
Description: as §1

B1: CpArap27 (Cpin_5740 gene product) (Chitinophaga pinensis DSM 2588) (protein)
chain: AQQKKDFHSWAPTPPMGWNSWDCYGPTVTEAEVKANADYMASHLKSSGWQYIIVDIRWYVANDKSHGYNETDPAYNIDAYGRFQPAVNRFPSAANGKGFKPLADYIHSKGLKFGIHIMRGVPVVAVNKKLPVKGTNVTAADIYSKQDQCKWLHDMYTIVPDKTGAQEYYNSLFDMYAAWGLDFVKVDDLSAPIYFTEEIEMIRKAITRTGRKILLSTSPGETPIAQGAHVQQHANMWRTVDDFWDNWPHLKDHFEVFDRWNKWRTTGAWPDGDMLPLGHIGIRAERGQPRMTSFTKDEQYTLMTLWTIFRSPLMFGGNLPDNDPFTLSLLTNKQVLQVLNNSSNNRPVFNDKDKAAWTADMPGKSAKYLAVFNKADKDAAAVNVDLSEIGIKGSCTITDLWTGKVLGKFTGSFAPQINPHGAGLYKVTP
notes: ~48 kDa; monomer by SEC
As to B1, in series [1], the Km turned out to be 12.9 ± 3.27 mM, the kcat is 32.3 ± 3.58 s⁻¹ and the catalytic efficiency (kcat/Km) was found to be 2500 M⁻¹ s⁻¹.

B2: CpArap27 (Cpin_5740 gene product) (Chitinophaga pinensis DSM 2588; I73E) (protein)
chain: AQQKKDFHSWAPTPPMGWNSWDCYGPTVTEAEVKANADYMASHLKSSGWQYIIVDERWYVANDKSHGYNETDPAYNIDAYGRFQPAVNRFPSAANGKGFKPLADYIHSKGLKFGIHIMRGVPVVAVNKKLPVKGTNVTAADIYSKQDQCKWLHDMYTIVPDKTGAQEYYNSLFDMYAAWGLDFVKVDDLSAPIYFTEEIEMIRKAITRTGRKILLSTSPGETPIAQGAHVQQHANMWRTVDDFWDNWPHLKDHFEVFDRWNKWRTTGAWPDGDMLPLGHIGIRAERGQPRMTSFTKDEQYTLMTLWTIFRSPLMFGGNLPDNDPFTLSLLTNKQVLQVLNNSSNNRPVFNDKDKAAWTADMPGKSAKYLAVFNKADKDAAAVNVDLSEIGIKGSCTITDLWTGKVLGKFTGSFAPQINPHGAGLYKVTP
notes: ~48 kDa; monomer by SEC
Turning to B2, in series [1], the Km stood at 6.56 ± 3.39 mM, the kcat amounted to 0.528 ± 0.115 s⁻¹ and the kcat/Km was 80.5 M⁻¹ s⁻¹. In series [2], the Km is on record as 35.6 ± 15.2 mM, the kcat amounted to 0.105 ± 0.0518 s⁻¹ and the kcat/Km was 2.95 M⁻¹ s⁻¹.

B3: CpArap27 (Cpin_5740 gene product) (Chitinophaga pinensis DSM 2588; I73D) (protein)
chain: AQQKKDFHSWAPTPPMGWNSWDCYGPTVTEAEVKANADYMASHLKSSGWQYIIVDDRWYVANDKSHGYNETDPAYNIDAYGRFQPAVNRFPSAANGKGFKPLADYIHSKGLKFGIHIMRGVPVVAVNKKLPVKGTNVTAADIYSKQDQCKWLHDMYTIVPDKTGAQEYYNSLFDMYAAWGLDFVKVDDLSAPIYFTEEIEMIRKAITRTGRKILLSTSPGETPIAQGAHVQQHANMWRTVDDFWDNWPHLKDHFEVFDRWNKWRTTGAWPDGDMLPLGHIGIRAERGQPRMTSFTKDEQYTLMTLWTIFRSPLMFGGNLPDNDPFTLSLLTNKQVLQVLNNSSNNRPVFNDKDKAAWTADMPGKSAKYLAVFNKADKDAAAVNVDLSEIGIKGSCTITDLWTGKVLGKFTGSFAPQINPHGAGLYKVTP
notes: ~48 kDa; monomer by SEC
For the protein B3, in series [1], the Km was found to be 8.63 ± 2.14 mM, the kcat amounted to 0.00718 ± 0.000775 s⁻¹ and the kcat/Km came out at 0.832 M⁻¹ s⁻¹. In addition, in series [2], the Michaelis-Menten constant (Km) is 35.3 ± 11.9 mM and the kcat/Km worked out at 0.00585 M⁻¹ s⁻¹.

B4: CpArap27 (Cpin_5740 gene product) (Chitinophaga pinensis DSM 2588; I73C) (protein)
chain: AQQKKDFHSWAPTPPMGWNSWDCYGPTVTEAEVKANADYMASHLKSSGWQYIIVDCRWYVANDKSHGYNETDPAYNIDAYGRFQPAVNRFPSAANGKGFKPLADYIHSKGLKFGIHIMRGVPVVAVNKKLPVKGTNVTAADIYSKQDQCKWLHDMYTIVPDKTGAQEYYNSLFDMYAAWGLDFVKVDDLSAPIYFTEEIEMIRKAITRTGRKILLSTSPGETPIAQGAHVQQHANMWRTVDDFWDNWPHLKDHFEVFDRWNKWRTTGAWPDGDMLPLGHIGIRAERGQPRMTSFTKDEQYTLMTLWTIFRSPLMFGGNLPDNDPFTLSLLTNKQVLQVLNNSSNNRPVFNDKDKAAWTADMPGKSAKYLAVFNKADKDAAAVNVDLSEIGIKGSCTITDLWTGKVLGKFTGSFAPQINPHGAGLYKVTP
notes: ~48 kDa; monomer by SEC
Turning to B4, in series [1], the Michaelis-Menten constant (Km) is given as 21.5 ± 10.4 mM, the kcat was determined as 0.403 ± 0.119 s⁻¹ and the catalytic efficiency (kcat/Km) is 18.8 M⁻¹ s⁻¹.

A word on the Km: it is the concentration of substrate that gives half-maximal velocity. What is called kcat is the number of substrate molecules converted per active site and unit of time at saturation. In general, kcat/Km refers to the second-order rate constant that governs catalysis at low substrate concentration.
